Experimental data from the nanobody polyreactivity screen of Harvey et al. (2022).

Assay: yeast display, Sf9 membrane polyspecificity reagent, FACS + sequencing; frameworks hold sequencing errors
Summary of the method: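 Galactose-induced (36–48 hours) yeast carrying a synthetic nanobody display library were exposed to 10% biotinylated, detergent-solubilized Sf9 membrane reagent at 4 °C for 1 hour. FACS followed streptavidin microbead enrichment, using low and high (top ~1%) gates for expression (anti-HA) and reagent binding (streptavidin). Colony PCR, MiSeq 2 × 250 sequencing and CDR-length filtering followed. Labels for polyreactivity reflect the gate of origin.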

Question: For “QVQLVESGGGLVQAGGSLRLSCAASGSTFGGYGMGWYRQAPGQERELVASISGGGNTNYADSVKGRFTISRDNAKNTVYLQKNSLKPEDTAVYYCNARINSWYSTYRYYYWGQGTQVTVSS”, which “polyreactivity (PSR sort gate)” value is on record?
Answer: low polyreactivity

Question: With “QVQLVESGGGLVQAGGSLRLSCAASGSTFGINAMGWYRQAPGKERELVASITRRGGSTYYADSVKGRFTISRDNAKNTVYLQMHSLKPEDTAVYYCAAGNKRRFEGDYWGQGTQVTVSS” as the sequence, how does the “polyreactivity (PSR sort gate)” value read?
Answer: high polyreactivity

Question: With “QVQLVESGGGLVQAGGSLRLSCAASGSTFGIYVMGWYRQAPGKERELVADISSSGGSTYYADSVKGRFTISRDNAKNTVYLQMNSLKPEDTAVYYCNAYHWDGDGVFYEYDYWGQGTQVTVSS” as the sequence, how does the “polyreactivity (PSR sort gate)” value read?
Answer: high polyreactivity

Question: Which “polyreactivity (PSR sort gate)” value does the source give for “QVQLVESGGGLVQAGGSLRLSCAASGSTFGKYAMGWYRQAPGKERELVAAISKSGGSTYYADSVKGRFTISRDNAKNTVYLQMNSLKPEDTAVYYCNAYPHAYTGSTREGDYWGQGTQVTVSS” here?
Answer: high polyreactivity

Question: Which “polyreactivity (PSR sort gate)” value does the source give for “QVQLVESGGGLVQAGGSLRLSCAASGSTFGKYAMGWYRQAPGKERELVAAITRRTGSTYYADSVKGRFTISRDNAKNTVYLQMNSLKPVDTAVYYCAARLPQYRYDYWGQGTQVTVSS” here?
Answer: high polyreactivity

Question: With “QVQLVESGGGLVQAGGSLRLSCAASGSTFGKYAMGWYRQAPGKERELVARIDSGDRTRYADSVKGRFTISRDNAKNTVYLQMNSLKPEDTAVYYCAARYVGARNAYRMGYWGQGTQVTVSS” as the sequence, how does the “polyreactivity (PSR sort gate)” value read?
Answer: high polyreactivity

Question: Which “polyreactivity (PSR sort gate)” value does the source give for “QVQLVESGGGLVQAGGSLRLSCAASGSTFGLNVMGWYRQAPGKEREFVAGISRSGGRTYYADSVKGRFTISRDNAKNTVYLQMNSLKPEDTAVYYRAADYWTGITPDAIGDYWGQGTQVTVSS” here?
Answer: low polyreactivity

Question: Which “polyreactivity (PSR sort gate)” value does the source give for “QVQLVESGGGLVQAGGSLRLSCAASGSTFGLYAMGWYRQAPGKERELVAAISSGGRTNYADSVKGRFTISRDNAKNTVYLQMNSLKPEDTAVYYCASAYIRGSRRYDYWGQGTQVTVSS” here?
Answer: high polyreactivity

Question: Which “polyreactivity (PSR sort gate)” value does the source give for “QVQLVESGGGLVQAGGSLRLSCAASGSTFGLYAMGWYRQAPGKERELVAAITSTGGSTYYADSVKGRFTISRDNAKNTVYLQMNSLKPEDTAVYYCARDYRSGYDYWGQGTQVTVSS” here?
Answer: low polyreactivity

Question: With “QVQLVESGGGLVQAGGSLRLSCAASGSTFGLYAMGWYRQAPGKERELVADITWSGGSTYYADSVKGRFTISRDNAKNTVYLQMNSLKPEDTAVYYCAADGYDQYPLWAPPGDYWGQGTQVTVSS” as the sequence, how does the “polyreactivity (PSR sort gate)” value read?
Answer: low polyreactivity

Question: With “QVQLVESGGGLVQAGGSLRLSCAASGSTFGLYAMGWYSQAPGKEREMVAVISWRGGSTIYADSVKGRFTISRDNAKITVYLEMNSLKPEDTAVYYCNAKQSYYYPWRGYNYWGQGTQVTVSS” as the sequence, how does the “polyreactivity (PSR sort gate)” value read?
Answer: high polyreactivity

Question: With “QVQLVESGGGLVQAGGSLRLSCAASGSTFGLYTMGWYRQAPGKERELVASISIGGSTYYADSVKGRFTISRDNAKNTVYLQMNSLKPEDTAVYYCAADVKRDRVWGGDYWGQGTQVTVSS” as the sequence, how does the “polyreactivity (PSR sort gate)” value read?
Answer: low polyreactivity

Question: For “QVQLVESGGGLVQAGGSLRLSCAASGSTFGLYVMGWYRQAPGKERELVAAISWSGGSTYYADSVKGRFTISRDTAKNTVYLQMNSLKPEDTAVYYCAKVFRTYRYPYGYWGQGTQVTVSS”, which “polyreactivity (PSR sort gate)” value is on record?
Answer: high polyreactivity

Question: For “QVQLVESGGGLVQAGGSLRLSCAASGSTFGNYAMGWDRQAPGKERELVAAITSSGRTYYADSVKGRFTISRDNAKNTVYFQMNSLKPEDTAVYYCAAKSSRGGSVGFDYWGQGTQVTVSS”, which “polyreactivity (PSR sort gate)” value is on record?
Answer: high polyreactivity

Question: Which “polyreactivity (PSR sort gate)” value does the source give for “QVQLVESGGGLVQAGGSLRLSCAASGSTFGNYAMGWYRQATGKERELVAASRWSGTRTFYADSVKGRFTISRDNAKNTVYLQMNSLKPEDTAVYYCNAVYSQPGYKGGYSWGQGTQVTVSS” here?
Answer: high polyreactivity

Question: With “QVQLVESGGGLVQAGGSLRLSCAASGSTFGPNTMGWYRQAPGKERELVAAINLRGGRTYYADSVKGRFTISRDNAKNTVYLQMNSLKPEDTAVYYCAARFKTTGYDYWGQGTQVTVSS” as the sequence, how does the “polyreactivity (PSR sort gate)” value read?
Answer: high polyreactivity

Question: Which “polyreactivity (PSR sort gate)” value does the source give for “QVQLVESGGGLVQAGGSLRLSCAASGSTFGPYAMGWYRQAPGKERELVAAIRSDGGTYYADSVTGRFTISRDNAKNTVYLQMNSLKPEDTAVYYCNAVPVGWRYRQYDYWGQGPQVTVSS” here?
Answer: high polyreactivity

Question: Which “polyreactivity (PSR sort gate)” value does the source give for “QVQLVESGGGLVQAGGSLRLSCAASGSTFGPYAMGWYRQAPGKERELVADITVSDGSTYYADSVKGRFTISRDNAKNTVYLQMNSLKPEDTAVYYCAAEIYYSFGYWGQGTQVTVSS” here?
Answer: low polyreactivity

Question: For “QVQLVESGGGLVQAGGSLRLSCAASGSTFGPYAMGWYRQAPGKERELVATIRGSGATTYYADSVKGRFTISRDNAKNTVYLQMHSLKPEDTAVYYCATAYFSGWYNRYGRATSYDYWGQGTQVTVSS”, which “polyreactivity (PSR sort gate)” value is on record?
Answer: high polyreactivity

Question: Which “polyreactivity (PSR sort gate)” value does the source give for “QVQLVESGGGLVQAGGSLRLSCAASGSTFGQYAMGWYRQAPGKELELVAAISSGGRTNYADSVKGRFTISRDNAKNPVYLQMNSLKPEDTAVYYCAARYYFPFRRFRRMDYWGQGTQVTVSS” here?
Answer: high polyreactivity

Question: With “QVQLVESGGGLVQAGGSLRLSCAASGSTFGRNAMGWYIQAPGKERELVAAISNRGGRTYYADSVKARFTISRDNAKNTVYFQMNSLKPEDTAVYYCAAEHRVQQGDYWGQGTQVTVSS” as the sequence, how does the “polyreactivity (PSR sort gate)” value read?
Answer: high polyreactivity

Question: For “QVQLVESGGGLVQAGGSLRLSCAASGSTFGRNAMGWYRQAPGKEREFVAAISSRGGRTSYADSVKGRFTISRDNAKNTVYLQMNSLKPEDTAVYYCATLGYFSASRTDYDYWGQGTQVTVSS”, which “polyreactivity (PSR sort gate)” value is on record?
Answer: low polyreactivity

Question: For “QVQLVESGGGLVQAGGSLRLSCAASGSTFGRNAMGWYRQAPGKERELVAAISKTGGSTYYADSVKGRFTISRDNAKNTVYLQMNSLKPEDTAVYYCAARIRGFRTYYYWGQGTQVTVSS”, which “polyreactivity (PSR sort gate)” value is on record?
Answer: high polyreactivity

Question: For “QVQLVESGGGLVQAGGSLRLSCAASGSTFGRNAMGWYRQAPGKERELVAAISSGGRTYYADSVKGRFTISRDNAKNTVYLQMNSLKPEDTAVYYCARDDYGTLVKLYVRGFNYWGQGTQVTVSS”, which “polyreactivity (PSR sort gate)” value is on record?
Answer: low polyreactivity

Question: With “QVQLVESGGGLVQAGGSLRLSCAASGSTFGRNARGWYRQAPGKERELVAAITASGGTTYYADSVKGRFTISRDNAKNTVYLQMNSLKPEDTAVYYCNVSYLVYRWNFGWSMDFWGQGTQLTVSS” as the sequence, how does the “polyreactivity (PSR sort gate)” value read?
Answer: low polyreactivity

Question: With “QVQLVESGGGLVQAGGSLRLSCAASGSTFGRNTMGWYRQAPGKERELVAAITSGDTTTYADSVKGRFTISRDNAKNTVYLQMNSLKPEDTAVYYCAVDPVRGRDYSWMDYWGQGTQVTVSS” as the sequence, how does the “polyreactivity (PSR sort gate)” value read?
Answer: low polyreactivity

Question: Which “polyreactivity (PSR sort gate)” value does the source give for “QVQLVESGGGLVQAGGSLRLSCAASGSTFGRNVIGWYRQAPGKERELVAAISIRGGSTYYADSVKGRFTISRDIAKNTVYLQMNSLKPEDTAVYYCALDYPTDAYDYWGQGTQVTVSS” here?
Answer: low polyreactivity

Question: Which “polyreactivity (PSR sort gate)” value does the source give for “QVQLVESGGGLVQAGGSLRLSCAASGSTFGRYAMGWYRPAPGKGRELDGAISRRGGSTYYADSVKGRFTISRDYAMKTVYFQMHSLKPEDTAVYDCATGYPIELGREFDYWGQGIQVTVSS” here?
Answer: high polyreactivity

Question: For “QVQLVESGGGLVQAGGSLRLSCAASGSTFGRYVMGWYRPAPGKERELVAAISKNAGSTYYADSVKGRFTISRDNAKNTVYLQMNSLKPEDTAVYYCNAQSFREYGYWGQGTQVTVSS”, which “polyreactivity (PSR sort gate)” value is on record?
Answer: high polyreactivity

Question: For “QVQLVESGGGLVQAGGSLRLSCAASGSTFGSNAMGWYRQAPGKEREFVAAITWSGGSTYYADSVKGRFTISRDNAKNTVYLQMNSLKPEDTAVYYCAAESDSYFREYDYWGQGTQVTVSS”, which “polyreactivity (PSR sort gate)” value is on record?
Answer: low polyreactivity

Question: For “QVQLVESGGGLVQAGGSLRLSCAASGSTFGSNAMGWYRQAPGKERELVAAISSSGSTYYADSVKGRFTISRDNAKNTVYLQMNSLKPEDTAVYYSAAPGSPYGYWGQGTQVTVSW”, which “polyreactivity (PSR sort gate)” value is on record?
Answer: high polyreactivity

Question: Which “polyreactivity (PSR sort gate)” value does the source give for “QVQLVESGGGLVQAGGSLRLSCAASGSTFGSNAMGWYRQAPGKERELVATITRRSGSTYYADSVKGRFTISRDNAKNTVYLQMNSLKPEDTAVYYCARVGFWLQYDYWGQGTQVTVSS” here?
Answer: high polyreactivity

Question: Which “polyreactivity (PSR sort gate)” value does the source give for “QVQLVESGGGLVQAGGSLRLSCAASGSTFGSYAMGWYRQAPGKERELVAAISWNGGRTYYADSVKGRFTISRDNAKNTVYFQRNSLKPEDTAVYYCAKVVKYQSGGGLEYWGQGTQVTVSS” here?
Answer: high polyreactivity

Question: Which “polyreactivity (PSR sort gate)” value does the source give for “QVQLVESGGGLVQAGGSLRLSCAASGSTFGSYTMGWYRQPPGKERELVAAINWSGGNTYYADSVKGRFTISRDNAKNTVYLQMNSLKPEDTAVYYCAAAFYIYGFEGDYWGQGTQVTVSS” here?
Answer: low polyreactivity

Question: Which “polyreactivity (PSR sort gate)” value does the source give for “QVQLVESGGGLVQAGGSLRLSCAASGSTFGSYVMGWYRQAPGKERELVAAIRWSGTSTYYADSVKGRFTISRDNAKNTVYLQLNSLKPEDTAVYYCNATPNYNRGDHTPMDYWGQGTQVTVSS” here?
Answer: low polyreactivity

Question: Which “polyreactivity (PSR sort gate)” value does the source give for “QVQLVESGGGLVQAGGSLRLSCAASGSTFGTNAMGWYRQAPGKEREFVASIRKSGGSTYYADSVKGRFTISRDNSKNTVYLQMNSLKPEDTAVYYCAAVYRRYLGGGYDYWGQGTQVTVSS” here?
Answer: high polyreactivity

Question: With “QVQLVESGGGLVQAGGSLRLSCAASGSTFGTNAMGWYRQAPGKEREFVASISVSGGSTYYADSVKGRFTISRDNAKNTVYLQMNSLKPEDTAVYYCNRRAYRRYQFGYWGQGTQVTVSS” as the sequence, how does the “polyreactivity (PSR sort gate)” value read?
Answer: high polyreactivity

Question: With “QVQLVESGGGLVQAGGSLRLSCAASGSTFGTNAMGWYRQAPGKERELVAAITYSGGRTYYADSVKGRFTISRDNAKNTVYLQMNSLKPEDTAVYYCAATFGFFYYQYEYWGLGTQVTVSS” as the sequence, how does the “polyreactivity (PSR sort gate)” value read?
Answer: low polyreactivity

Question: Which “polyreactivity (PSR sort gate)” value does the source give for “QVQLVESGGGLVQAGGSLRLSCAASGSTFGTYAMGWYRQAPGKERELVASIDNSTSGTYYADSVKGRFTISRDNAKNTVYLQMNSLKPEDTAVYYCAATPLVDGSSIPREGDYWGQGTQVTVSS” here?
Answer: low polyreactivity

Question: With “QVQLVESGGGLVQAGGSLRLSCAASGSTFGTYAQGCYRQAPVKDRELVAAITYSTGNTYDADSVKGRFTISRDNAKNTVYLQMNSLKPEDTAVYYCALEYVYDYFWMDYWGQGTQVTVSS” as the sequence, how does the “polyreactivity (PSR sort gate)” value read?
Answer: high polyreactivity

Question: With “QVQLVESGGGLVQAGGSLRLSCAASGSTFGTYTMGWYRPAPGKERELVAAISNRGGTYYADSVKGRFTISRDNAKNTVYLQMNSMKPEDTAVYYCAVARRWGYDYWGQGTQVTVSS” as the sequence, how does the “polyreactivity (PSR sort gate)” value read?
Answer: high polyreactivity
